Columns and labels:
Experiment in all cases: SPR
Human FcRn = target: Human FcRn
Human FcγRIIIaV158 = target: Human FcγRIIIaV158
Human FcγRIIaH131 = target: Human FcγRIIaH131
Human FcγRIIb = target: Human FcγRIIb
NHP FcγRIII = target: NHP FcγRIII
NHP FcγRIIa = target: NHP FcγRIIa
NHP FcγRIIb = target: NHP FcγRIIb

| Substance | Kd (Human FcRn) | Kd (Human FcγRIIIaV158) | Kd (Human FcγRIIaH131) | Kd (Human FcγRIIb) | Kd (NHP FcγRIII) | Kd (NHP FcγRIIa) | Kd (NHP FcγRIIb) |
| --- | --- | --- | --- | --- | --- | --- | --- |
| GRLR | 22.4 nM | – | – | – | – | – | – |
| LS | 4.76 nM | 233 nM | 2090 nM | 6380 nM | 424 nM | 7970 nM | 2690 nM |
